Source: US20240279288A1, “APPLICATION OF PLANT JAZ PROTEINS AND DERIVED POLYPEPTIDES IN PREVENTION AND TREATMENT OF HUMAN AND ANIMAL TUMORS” (ANYANG INSTITUTE OF SINO-COTTON INDUSTRY INNOVATION, priority 2021, published 2024)

B1: GhJAZ1: cotton JAZ1 protein, gene number Gh_A05G0260, sequence SEQ ID No. 4; prokaryotically expressed with His tag, about 30 KD (protein)
chain: MSSCSESTAMKPARSPEKPSFAQTCNLLSQYLKEKGSFGDLSLGMTCNVEANGTPVVPPPTMNLFPLNDKSDDVCGRNGGNPKNLTSMDLFPQQAGLASKDDSPNKLEPQTAPMTIFYGGQVIVFNDFPANKAKEIMLLASNSSSQSNNSFNPIPFTSSIARSPIESSIGVPPTSKPVHPAQRAVPGDLPIARRASLHRFLEKRKDRITAKAPYQINNSAAAPSLSGDNKSWLGLAAQSP
modifications: His tag
notes: prokaryotically expressed with His tag, about 30 KD
B2: GhJAZ1 after deletion of NT domain: GhJAZ1 mutant with NT domain deleted, protein sequence SEQ ID No. 83 (protein)
chain: MSSCSESTAMKPARSPEANGTPVVPPPTMNLFPLNDKSDDVCGRNGGNPKNLTSMDLFPQQAGLASKDDSPNKLEPQTAPMTIFYGGQVIVFNDFPANKAKEIMLLASNSSSQSNNSFNPIPFTSSIARSPIESSIGVPPTSKPVHPAQRAVPGDLPIARRASLHRFLEKRKDRITAKAPYQINNSAAAPSLSGDNKSWLGLAAQSP

Legend:
Format in all cases: binding, cotton
[1] = test system: GhHDA6; assay: Yeast two hybrid with GhHDA6
Protocol: (§1) The study on Arabidopsis had shown that the inhibition of JAZ protein on JA signaling was mainly achieved by inhibiting the transcription factor function of MYC, which had been experimentally verified by us in cotton. Based on the phylogenetic tree of Arabidopsis and cotton JAZs, we screened 6 cotton JAZs (GhJAZ1, GhJAZ7, GhJAZ9, GhJAZ10, GhJAZ11 and GhJAZ31), which were analyzed with GhMYC2, GhNINJA, GhTPL, GhHDA6, and GhCOI1 for yeast two hybrid. The amino acid sequence of GhJAZ1 was set forth in SEQ ID No. 4, and the corresponding encoding gene sequence was set forth in SEQ ID No. 39; the amino acid sequence of GhJAZ7 was set forth in SEQ ID No. 7, and the corresponding encoding gene sequence was set forth in SEQ ID No. 42; the amino acid sequence of GhJAZ9 was set forth in SEQ ID No. 2, and the corresponding encoding gene sequence was set forth in SEQ ID No. 37; the amino acid sequence of GhJAZ10 was set forth in SEQ ID No. 3, and the corresponding encoding gene sequence was set forth in SEQ ID No. 38; the amino acid sequence of GhJAZ11 was set forth in SEQ ID No. 5, and the corresponding encoding gene sequence was set forth in SEQ ID No. 40; and the amino acid sequence of GhJAZ31 was set forth in SEQ ID No. 9, and the corresponding encoding gene sequence was set forth in SEQ ID No. 44. […]

[2] = test system: GhMYC2; assay: Yeast two hybrid with GhMYC2
Protocol: as §1, with “44. The amino acid sequence of GhMYC2 was set forth in SEQ ID No. 71, and the corresponding encoding gene sequence was set forth in SEQ ID No. 72; the amino acid sequence of GhNINJA was set forth in SEQ ID No. 73, and the corresponding encoding gene sequence was set forth in SEQ ID No. 74; the amino acid sequence of GhTPL was set forth in SEQ ID No. 75, and the corresponding encoding gene sequence was set forth in SEQ ID No. 76; the amino acid sequence of GhHDA6 was set forth in SEQ ID No. 77, and the corresponding encoding gene sequence was set forth in SEQ ID No. 78; and the amino acid sequence of GhCOI1 was set forth in SEQ ID No. 79, and the corresponding encoding gene sequence was set forth in SEQ ID No. 80.” for “44.”

[3] = test system: GhCOI1; assay: Yeast two hybrid with GhCOI1; settings: in the presence of JA-Ile
Protocol: as §1, with “44. The amino acid sequence of GhMYC2 was set forth in SEQ ID No. 71, and the corresponding encoding gene sequence was set forth in SEQ ID No. 72; the amino acid sequence of GhNINJA was set forth in SEQ ID No. 73, and the corresponding encoding gene sequence was set forth in SEQ ID No. 74; the amino acid sequence of GhTPL was set forth in SEQ ID No. 75, and the corresponding encoding gene sequence was set forth in SEQ ID No. 76; the amino acid sequence of GhHDA6 was set forth in SEQ ID No. 77, and the corresponding encoding gene sequence was set forth in SEQ ID No. 78; and the amino acid sequence of GhCOI1 was set forth in SEQ ID No. 79, and the corresponding encoding gene sequence was set forth in SEQ ID No. 80.” for “44.”

GhHDA6, sequence (as listed by the source): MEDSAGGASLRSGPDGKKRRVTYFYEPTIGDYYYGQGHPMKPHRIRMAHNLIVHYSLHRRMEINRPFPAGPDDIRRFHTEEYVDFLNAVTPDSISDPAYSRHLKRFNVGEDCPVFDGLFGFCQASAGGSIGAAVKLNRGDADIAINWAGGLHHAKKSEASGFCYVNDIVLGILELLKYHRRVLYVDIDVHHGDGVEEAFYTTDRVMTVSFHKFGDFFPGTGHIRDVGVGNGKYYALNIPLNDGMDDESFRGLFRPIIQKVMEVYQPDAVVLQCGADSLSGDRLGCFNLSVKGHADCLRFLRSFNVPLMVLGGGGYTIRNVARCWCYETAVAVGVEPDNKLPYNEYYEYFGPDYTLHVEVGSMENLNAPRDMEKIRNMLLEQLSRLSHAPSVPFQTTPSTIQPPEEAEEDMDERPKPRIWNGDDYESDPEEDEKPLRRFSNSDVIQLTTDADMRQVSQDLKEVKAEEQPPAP
GhCOI1, sequence (as listed by the source): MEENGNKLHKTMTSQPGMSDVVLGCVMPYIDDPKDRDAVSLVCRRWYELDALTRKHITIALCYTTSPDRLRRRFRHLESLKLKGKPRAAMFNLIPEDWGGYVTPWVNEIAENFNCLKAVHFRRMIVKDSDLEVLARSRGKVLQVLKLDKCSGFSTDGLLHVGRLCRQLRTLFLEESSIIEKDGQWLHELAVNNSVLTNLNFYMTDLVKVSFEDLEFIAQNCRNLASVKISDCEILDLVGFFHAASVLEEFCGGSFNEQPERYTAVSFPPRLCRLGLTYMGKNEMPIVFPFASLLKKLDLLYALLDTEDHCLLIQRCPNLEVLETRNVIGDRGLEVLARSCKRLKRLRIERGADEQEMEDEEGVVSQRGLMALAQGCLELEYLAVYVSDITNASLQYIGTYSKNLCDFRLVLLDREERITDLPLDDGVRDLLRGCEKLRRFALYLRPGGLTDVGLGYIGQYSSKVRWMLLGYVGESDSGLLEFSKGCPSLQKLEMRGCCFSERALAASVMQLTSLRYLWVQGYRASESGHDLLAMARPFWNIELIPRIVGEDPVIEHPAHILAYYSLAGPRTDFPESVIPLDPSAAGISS
GhMYC2, sequence (as listed by the source): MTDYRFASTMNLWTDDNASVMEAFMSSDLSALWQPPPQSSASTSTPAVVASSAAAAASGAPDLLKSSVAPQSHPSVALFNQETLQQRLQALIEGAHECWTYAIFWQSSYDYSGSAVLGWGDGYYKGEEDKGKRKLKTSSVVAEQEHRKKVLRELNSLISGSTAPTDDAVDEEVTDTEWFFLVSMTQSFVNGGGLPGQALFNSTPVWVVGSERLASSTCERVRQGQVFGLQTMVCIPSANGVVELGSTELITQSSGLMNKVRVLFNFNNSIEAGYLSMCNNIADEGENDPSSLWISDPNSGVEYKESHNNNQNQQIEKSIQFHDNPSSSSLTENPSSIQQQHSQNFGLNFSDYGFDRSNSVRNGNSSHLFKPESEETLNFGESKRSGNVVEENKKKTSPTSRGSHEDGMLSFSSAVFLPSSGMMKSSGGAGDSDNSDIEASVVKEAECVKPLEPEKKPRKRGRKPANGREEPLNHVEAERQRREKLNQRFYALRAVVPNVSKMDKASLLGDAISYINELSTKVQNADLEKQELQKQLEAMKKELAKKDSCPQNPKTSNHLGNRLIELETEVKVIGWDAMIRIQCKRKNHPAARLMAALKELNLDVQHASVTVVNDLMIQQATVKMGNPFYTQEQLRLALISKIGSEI

Molecule	interaction with GhHDA6 [1]	interaction with GhMYC2 [2]	interaction with GhCOI1 [3]
B1	interacted	strong	interacted
B2	significantly weakened	significantly weakened	significantly weakened
